In paper PMC7888707:

What was measured:
[1] = target: PECAM-1–GFP (wild type, stably expressed in HL-60 cells) (human) (UniProt P16284); assay: FRET or BRET; FLIM measurement of FRET between the GFP and RFP tags in dHL-60 cells perfused (1.5 dynes/cm2) over TNF-activated HUVEC monolayers, fixed in 4% PFA in mid-TEM; read at breached junctions
[2] = target: PECAM-1–GFP (wild type, stably expressed in HL-60 cells) (human) (UniProt P16284); assay: FRET or BRET; FLIM measurement of FRET between the GFP and RFP tags in HL-60 cells plated on poly-L-lysine-coated coverslips at 37°C for 5 min, fixed in 4% PFA (resting, not in TEM)
[3] = target: PECAM-1–GFP (wild type, stably expressed in HL-60 cells) (human) (UniProt P16284); assay: FRET or BRET; FLIM measurement of FRET between the GFP and RFP tags in dHL-60 cells perfused (1.5 dynes/cm2) over IL-1β-activated HUVEC monolayers, fixed in 4% PFA in mid-TEM; read at breached junctions

Work on “L-selectin–RFP (wild type, stably expressed in HL-60 cells) (from UniProt P14151 39-372) (natural protein)” yielded an FRET efficiency [1] of 5.39%, an FRET efficiency [2] of 0.982% and an FRET efficiency [3] of 1.21%.
